Changes are numbered by the printed parent chain. In names and notes the source's numbering stands.
B1: H1M6492N (antibody, V domains shown)
VH: EVQLVESGGGLVKPGGSLRVSCVASGFTFSNAWMTWVRQTPGKGLECVGRIKSRTDGGTVDYVAPVKGRFTISRDDSKNTLYLQMNSLKAEDTAVYYCRADLDYWGQGTLVTVSS
VL: DVVMTQSPLSLPVSLGQPASISCRSSQSLVHSDGITYLNWFQQRPGQSPRRLIYKISNRDSGVPDRFSGSGSGTDFTLKFSRVEAEDVGVYFCMQGTHWPYTFGQGTKLEIK
notes: Hybridoma antibody, human variable domains, mouse constant domains; prefix H1M marks the Fc region (isotype not spelled out)
B2: H1M6494N (antibody, V domains shown)
VH: B1 VH
VL: B1 VL
notes: as for B1
B3: H2M6495N (antibody, V domains shown)
VH: QVQLVESGGGVVQPGRSLRLSCAASGFTFRSYGMHWVRQAPGKGLEWVAVIWYDGSDKYYADSVKGRFTISRDNSKNTLYLQMNSLRAEDTAVYFCAKDEYKTRGGYFDYWGQGTLVTVSS
VL: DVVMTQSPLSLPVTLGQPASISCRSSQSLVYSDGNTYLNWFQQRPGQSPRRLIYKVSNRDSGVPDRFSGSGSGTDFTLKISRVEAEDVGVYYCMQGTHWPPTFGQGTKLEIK
notes: Hybridoma antibody, human variable domains, mouse IgG2 Fc (prefix H2M)
B4: H2M6486N (antibody, V domains shown)
VH: EVQLVESGGGLVKPGGSLRLSCAASGFTFSSYNMNWVRQAPGKGLEWVSSISSSSSYIYYADSVKGRFTISRDNAKNSLYLQMNSLRAEDTAVYYCARDNWNYSFDYWGQGTLVTVSS
VL: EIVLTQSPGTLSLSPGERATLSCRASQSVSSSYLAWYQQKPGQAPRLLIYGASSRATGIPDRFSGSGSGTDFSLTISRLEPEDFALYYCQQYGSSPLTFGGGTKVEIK
notes: as for B3
B5: H4H6334P (antibody, V domains shown)
VH: EVQLVESGGGLVKPGGSLRLSCAVSGFTFSIDWMIWVRQAPGTGLEWVGRIKRKTDGGTTDYAAPVKGRFTISRDDSKNTLYLQMNSLKTEDTAIYYCATGGFERVGQGTLVTVSS
VL: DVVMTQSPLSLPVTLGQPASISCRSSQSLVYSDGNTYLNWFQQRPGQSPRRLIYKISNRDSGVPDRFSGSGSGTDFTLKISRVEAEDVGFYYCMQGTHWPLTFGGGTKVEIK
notes: Human IgG4 Fc (prefix H4H)
B6: H4H6328P (antibody, V domains shown)
VH: B3 VH with R30S, F95Y, K98R, E100G, K102G, T103S, G106N
VL: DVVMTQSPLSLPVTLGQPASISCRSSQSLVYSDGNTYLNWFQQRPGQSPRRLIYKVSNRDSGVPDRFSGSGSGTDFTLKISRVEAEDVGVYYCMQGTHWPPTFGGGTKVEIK
notes: Human IgG4 Fc (prefix H4H)
B7: H4H6495N (antibody, V domains shown)
VH: B3 VH
VL: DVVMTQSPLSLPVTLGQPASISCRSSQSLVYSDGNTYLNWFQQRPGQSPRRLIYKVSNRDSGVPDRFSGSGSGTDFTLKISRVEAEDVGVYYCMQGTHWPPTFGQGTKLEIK
notes: Human IgG4 Fc version of 6495N; also called 6495N (human IgG4 format)

Target: T1, human big-endothelin-1 (big-ET-1) (human)
T1 peptide: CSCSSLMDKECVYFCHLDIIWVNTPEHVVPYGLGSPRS
Test: cell-based or functional assay
In the case of B1, the “Blocking IC50(M), 10 nM hBig-ET-1 + 3 nM hECE1 [Trial 1]; 293/ETaR/NFAT-Luc luciferase” value is reported as 1.5e-09 M. In the case of B2, the “Blocking IC50(M), 10 nM hBig-ET-1 + 3 nM hECE1 [Trial 1]; 293/ETaR/NFAT-Luc luciferase” value is reported as 1.5e-09 M. In the case of B3, the “Blocking IC50(M), 10 nM hBig-ET-1 + 3 nM hECE1 [Trial 1]; 293/ETaR/NFAT-Luc luciferase” value is reported as 4.3e-09 M. B4 was tested, and the “Blocking IC50(M), 10 nM hBig-ET-1 + 3 nM hECE1 [Trial 1]; 293/ETaR/NFAT-Luc luciferase” value was 7.6e-09 M.

Target: T1, human big-endothelin-1 (big-ET-1)
Test: cell-based or functional assay
Remark: another data set of the same source
With B5 the “Blocking IC50(M), 10 nM hBig-ET-1 + 3 nM hECE1; 293/ETaR/NFAT-Luc luciferase” value was 6.8e-10 M. In the case of B6, the “Blocking IC50(M), 10 nM hBig-ET-1 + 3 nM hECE1; 293/ETaR/NFAT-Luc luciferase” value is reported as > 1e-07 M. For B7, the “Blocking IC50(M), 10 nM hBig-ET-1 + 3 nM hECE1; 293/ETaR/NFAT-Luc luciferase” value was 1.33e-08 M.

Target: T2, mouse big-ET-1 (mouse)
T2 peptide: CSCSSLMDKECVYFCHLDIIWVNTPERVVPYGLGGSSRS
Test: cell-based or functional assay
For B5, the “Blocking IC50(M), 20 nM mBig-ET-1 + 5 nM mECE1; 293/ETaR/NFAT-Luc luciferase” value was > 1e-07 M. With B6 the “Blocking IC50(M), 20 nM mBig-ET-1 + 5 nM mECE1; 293/ETaR/NFAT-Luc luciferase” value was > 1e-07 M.

Target: T1, human big-endothelin-1 (big-ET-1)
Test: SPR (Biacore T200), 37 C, mAb capture, peptide analyte
Protocol: (§1) Measurements were conducted on a T200 Biacore instrument (Biacore Life Sciences division of GE Healthcare, Piscataway, N.J.). […] Peptide binding was monitored for 3 min while dissociation of mAb-bound peptide was monitored for 4 min in HBST running buffer (0.01 M HEPES pH 7.4, 0.15 M NaCl, 3 mM EDTA, 0.005% v/v Surfactant P20). Kinetic association (kₐ) and dissociation (kd) rate constants were determined by processing and fitting the data to a 1:1 binding model using Scrubber 2.0 curve fitting software.
For B5, the Kd was < 0.05 nM. In the case of B6, the Kd is reported as < 0.05 nM. B3 was tested, and the Kd was < 0.05 nM.

Target: T3, small-ET-1 (endothelin-1) (human)
T3 construct: 21 amino acid peptide, same for mouse and human; also called human small-ET-1; EDN-1
T3 peptide: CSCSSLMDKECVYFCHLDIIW
Test: as above
Protocol: as §1
B1: no binding. B2: no binding. B6: no binding. B3: no binding. B4: no binding.

Target: T1, human big-endothelin-1 (big-ET-1)
Test: as above
Remark: another data set of the same source
Protocol: as §1
In the case of B1, the Kd is reported as 6.46 nM, the “T½” value is reported as 7 min and the koff is reported as 0.0016 s⁻¹. For the same binder, the kon was 248000 M⁻¹ s⁻¹. B2 was tested, and the Kd was 7.07 nM, the “T½” value was 7 min and the koff was 0.00169 s⁻¹. The kon was 239000 M⁻¹ s⁻¹. With B5 the Kd was 0.043 nM, the “T½” value was 133 min and the koff was 8.68e-05 s⁻¹. The kon was 2.02e+06 M⁻¹ s⁻¹. In the case of B6, the Kd is reported as ≤ 0.00634 nM, the “T½” value is reported as 11600 min and the koff is reported as ≤ 1e-06 s⁻¹. It also gave a kon of 158000 M⁻¹ s⁻¹. With B3 the “T½” value was 11600 min, the koff was ≤ 1e-06 s⁻¹ and the kon was 117000 M⁻¹ s⁻¹. With B7 the “T½” value was 0.3 min, the koff was 0.0399 s⁻¹ and the kon was 606000 M⁻¹ s⁻¹. B4 was tested, and the Kd was 239 nM, the “T½” value was 0.1 min and the koff was 0.0898 s⁻¹. It also gave a kon of 380000 M⁻¹ s⁻¹.

Target: T2, mouse big-ET-1
Test: as above
Protocol: as §1
For B5, the Kd was 58 nM, the “T½” value was 25 min and the koff was 0.000456 s⁻¹. The kon was 7900 M⁻¹ s⁻¹. B4 was tested, and the Kd was 160 nM, the “T½” value was 0.1 min and the koff was 0.135 s⁻¹. For the same binder, the kon was 830000 M⁻¹ s⁻¹.

Target: T1, human big-endothelin-1 (big-ET-1)
Test: SPR (Biacore T200), 37 C, mAb capture, peptide analyte; human IgG4 format (H4H), captured on mouse anti-human Fc surface; Table 3
Protocol: as §1
B7 gave a Kd of 65.9 nM.

Target: T1, human big-endothelin-1 (big-ET-1)
Test: SPR (Biacore T200), 37 C, mAb capture, peptide analyte; hybridoma mAb (H2M, mouse Fc), captured on rabbit anti-mouse surface; Table 2
Protocol: as §1
B3 was tested, and the Kd was ≤ 0.00853 nM.

From patent US20130216547A1 (Regeneron, published 2013)
